From PMC9716016

Substrate: N
Assay: cells, lysate or membranes
Settings: labelled compound; (15NH4)2SO4 (60% 15N), 10 min; N-starved 3 d; qko background subtracted; whole-root uptake

B1: ScAMT2;1 (Saccharum hybrid cultivar SP80-3280) (protein)
chain: MAASGGAYAAQLPAVPEWLNKGDNAWQLTAATLVGIQSMPGLVVLYGSIVKKKWAVNSAFMALYAYASSLLVWVLVGFRMAFGERLLPFWGKAGVALSQGYLVRRASLSATAHGDTPRTEPLYPEATLVLFQFEFAAITLVLLAGSVLGRMNIKAWMAFTPLWLLFSYTVGAFSLWGGGFLYHWGVIDYSGGYVIHLSSGVAGFTAAYWVGPRLKSDRERFSPNNILLMIAGGGLLWMGWAGFNGGAPYAANIAASVAVLNTNVSAATSLLTWTCLDVIFFNKPSVIGAVQGMMTGLVCITPGAGLVQTWAAVIMGVFAGSVPWFTMMILHKKSALLMKVDDTLAVFHTHAVAGLLGGVLTGLLATPELLEIESPVPGLRGAFYGGGAQQVGKQLAGAAFVVAWNVAVTSLILFAIGLLVPLRMPDDQLMIGDDAAHGEEAYALWGDGEKFDATRHDLAARVGGGGMMDREGSADQRMSGMGARGVTIQL
Question: Which Km does the source give for B1 here?
Answer: 90.17 µM
